From paper PMC3642127, “Distinguishable In Vitro Binding Mode of Monomeric TRBP and Dimeric PACT with siRNA” (PLoS ONE, 2013)
Each block holds one binder with its values, some of them ahead of it.

Experiments:
[1] = target: T1, PACT-WT (N-terminal His- and C-terminal myc-tagged protein activator of PKR) (human), O75569; assay: SEC; Superdex 200 HR 10/30; purified protein (TRBP proteins 1,300 nM, 330-1,300 nM in Figure S3; PACT concentration not stated) pre-incubated with siLuc-36 siRNA (300 nM) 30 min on ice; 20 mM Tris pH 7.5, 150 mM NaCl, 2 mM EDTA, 1 mM 2-mercaptoethanol, 1 mM DTT; fractions blotted with anti-myc; conditions: remark: other sources report otherwise
T1 chain: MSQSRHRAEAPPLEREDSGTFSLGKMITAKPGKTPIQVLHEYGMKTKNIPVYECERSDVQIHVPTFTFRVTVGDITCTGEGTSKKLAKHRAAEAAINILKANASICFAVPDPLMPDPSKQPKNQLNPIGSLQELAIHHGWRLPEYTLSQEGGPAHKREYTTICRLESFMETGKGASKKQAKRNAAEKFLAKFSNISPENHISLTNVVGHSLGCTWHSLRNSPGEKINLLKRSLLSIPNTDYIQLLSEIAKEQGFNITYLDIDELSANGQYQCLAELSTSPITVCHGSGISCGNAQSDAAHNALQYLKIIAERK

[2] = target: the molecule itself; assay: as above
TRBP-WT [3] = target: T2, TRBP-WT (human, UniProt Q15633 1-366); assay: EMSA; complex 1 (monomer); EMSA: 20 mM Tris pH 7.5, 150 mM NaCl, 2 mM EDTA, 1 mM 2-mercaptoethanol, 1 mM DTT, 50 ng/ul salmon sperm DNA, 0.4 U/ul RNasin, 0.5 nM 32P-siRNA, 30 min on ice; conditions: protein: recombinant, tags: N-His6;C-myc, label: 32P guide strand
T2 sequence: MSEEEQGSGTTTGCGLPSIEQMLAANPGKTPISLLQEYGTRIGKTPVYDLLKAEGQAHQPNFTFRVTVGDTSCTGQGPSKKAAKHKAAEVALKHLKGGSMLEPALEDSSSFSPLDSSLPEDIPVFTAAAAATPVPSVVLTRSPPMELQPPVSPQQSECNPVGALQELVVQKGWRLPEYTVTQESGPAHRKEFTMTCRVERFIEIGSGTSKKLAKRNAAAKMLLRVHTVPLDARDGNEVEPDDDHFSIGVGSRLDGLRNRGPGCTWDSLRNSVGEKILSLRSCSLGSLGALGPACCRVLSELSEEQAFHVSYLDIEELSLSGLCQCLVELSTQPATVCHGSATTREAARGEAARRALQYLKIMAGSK

TRBP-WT [4] = target: T2, TRBP-WT; assay: EMSA; EMSA: 20 mM Tris pH 7.5, 150 mM NaCl, 2 mM EDTA, 1 mM 2-mercaptoethanol, 1 mM DTT, 50 ng/ul salmon sperm DNA, 0.4 U/ul RNasin, 0.5 nM 32P-siRNA, 30 min on ice; conditions: protein: recombinant, tags: N-His6;C-myc, label: 32P
[5] = target: the molecule itself; assay: native gel or EMSA; purified protein 0-1,300 nM with 0.5 nM 32P-labeled siRNA, 30 min on ice; 20 mM Tris pH 7.5, 150 mM NaCl, 2 mM EDTA, 1 mM 2-mercaptoethanol, 1 mM DTT, salmon sperm DNA, RNasin; 9% polyacrylamide gel; Kd from siRNA-binding curves; complex 2 = second protein molecule joining the protein-siRNA complex 1
TRBP-ΔdsRBD3 = target: T3, TRBP-ΔdsRBD3 (human, UniProt Q15633 1-292); assay: EMSA; complex 1; EMSA: 20 mM Tris pH 7.5, 150 mM NaCl, 2 mM EDTA, 1 mM 2-mercaptoethanol, 1 mM DTT, 50 ng/ul salmon sperm DNA, 0.4 U/ul RNasin, 0.5 nM 32P-siRNA, 30 min on ice; conditions: protein: recombinant; tags: N-His6;C-myc; label: 32P guide strand; 2 nt 3' overhangs
T3 sequence: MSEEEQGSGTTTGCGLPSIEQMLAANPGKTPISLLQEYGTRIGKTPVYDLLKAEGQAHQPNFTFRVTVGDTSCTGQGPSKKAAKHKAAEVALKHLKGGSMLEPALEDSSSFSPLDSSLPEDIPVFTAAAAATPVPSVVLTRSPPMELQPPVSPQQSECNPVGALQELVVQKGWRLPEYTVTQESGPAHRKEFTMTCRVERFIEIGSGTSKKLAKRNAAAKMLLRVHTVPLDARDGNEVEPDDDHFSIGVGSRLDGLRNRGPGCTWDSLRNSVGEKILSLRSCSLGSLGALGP

- stoichiometry N [1]: 2
B1: PACT-WT (N-terminal His- and C-terminal myc-tagged protein activator of PKR), O75569 1-313 (natural protein)
chain: MSQSRHRAEAPPLEREDSGTFSLGKMITAKPGKTPIQVLHEYGMKTKNIPVYECERSDVQIHVPTFTFRVTVGDITCTGEGTSKKLAKHRAAEAAINILKANASICFAVPDPLMPDPSKQPKNQLNPIGSLQELAIHHGWRLPEYTLSQEGGPAHKREYTTICRLESFMETGKGASKKQAKRNAAEKFLAKFSNISPENHISLTNVVGHSLGCTWHSLRNSPGEKINLLKRSLLSIPNTDYIQLLSEIAKEQGFNITYLDIDELSANGQYQCLAELSTSPITVCHGSGISCGNAQSDAAHNALQYLKIIAERK

B2: PACT-dsRBDmt1 (natural protein, human, UniProt O75569 1-313, looked up)
chain: MSQSRHRAEAPPLEREDSGTFSLGKMITAKPGKTPIQVLHEYGMKTKNIPVYECERSDVQIHVPTFTFRVTVGDITCTGEGTSAALAKHRAAEAAINILKANASICFAVPDPLMPDPSKQPKNQLNPIGSLQELAIHHGWRLPEYTLSQEGGPAHKREYTTICRLESFMETGKGASKKQAKRNAAEKFLAKFSNISPENHISLTNVVGHSLGCTWHSLRNSPGEKINLLKRSLLSIPNTDYIQLLSEIAKEQGFNITYLDIDELSANGQYQCLAELSTSPITVCHGSGISCGNAQSDAAHNALQYLKIIAERK
notes: human PACT with lysines 84 and 85 in dsRBD1 replaced with alanines; source: E. coli Rosetta (DE3) pLysS, purified (Ni-NTA agarose); not shown: His6, N-terminal, kept; myc, C-terminal, kept
- stoichiometry N [2]: 2

B3: PACT-dsRBDmt2 (natural protein, human, UniProt O75569 1-313, looked up)
chain: MSQSRHRAEAPPLEREDSGTFSLGKMITAKPGKTPIQVLHEYGMKTKNIPVYECERSDVQIHVPTFTFRVTVGDITCTGEGTSKKLAKHRAAEAAINILKANASICFAVPDPLMPDPSKQPKNQLNPIGSLQELAIHHGWRLPEYTLSQEGGPAHKREYTTICRLESFMETGKGASAAQAKRNAAEKFLAKFSNISPENHISLTNVVGHSLGCTWHSLRNSPGEKINLLKRSLLSIPNTDYIQLLSEIAKEQGFNITYLDIDELSANGQYQCLAELSTSPITVCHGSGISCGNAQSDAAHNALQYLKIIAERK
notes: human PACT with lysines 177 and 178 in dsRBD2 replaced with alanines; source: E. coli Rosetta (DE3) pLysS, purified (Ni-NTA agarose); not shown: His6, N-terminal, kept; myc, C-terminal, kept
- stoichiometry N [2]: 2

B4: siLuc-30 (dsRNA)
RNA 1: UCUUCAUAGAAUGGCGCCGGG
RNA 2: CGGCGCCAUUCUAUGAAGAUG
- Kd (TRBP-WT [3]; 2 nt 3' overhangs): 6.2 nM

B5: siLuc-18 (dsRNA)
RNA 1: GGCGCCGGGCCUUUCUUUAUG
RNA 2: UAAAGAAAGGCCCGGCGCCAU
- Kd (TRBP-WT [3]; 2 nt 3' overhangs): 5.8 nM

B6: ssRNA_Luc2-153 (ssRNA)
RNA: UCGAAGUAUUCCGCGUACGUG
- binding result (TRBP-WT [4]; single strand): no binding

B7: dsDNA_Luc2-153 (dsDNA)
DNA 1: TCGAAGTATTCCGCGTACGTG
DNA 2: CGTACGCGGAATACTTCGATT
- binding result (TRBP-WT [4]): no binding

B8: dsDNA_Luc-36 (dsDNA)
DNA 1: TCTTCCAGCGGATAGAATGGC
DNA 2: CATTCTATCCGCTGGAAGATG
- binding result (TRBP-WT [4]): no binding

B9: siLuc-36B (dsRNA)
RNA 1: UCUUCCAGCGGAUAGAAUGGC
RNA 2: GCCAUUCUAUCCGCUGGAAGA
- Kd (TRBP-WT [3]; blunt): 4.5 nM

B10: siLuc-1430 (dsRNA)
RNA 1: CGGCGGCGGGAAGUUCACCGG
RNA 2: GGUGAACUUCCCGCCGCCGUU
- Kd (TRBP-WT [3]; 2 nt 3' overhangs): 5.7 nM

B11: siLuc2-153B (dsRNA)
RNA 1: UCGAAGUAUUCCGCGUACGUG
RNA 2: CACGUACGCGGAAUACUUCGA
- Kd (TRBP-WT [3]; blunt): 5.1 nM

B12: TRBP-dsRBDmt1 (natural protein, human, UniProt Q15633 1-366, looked up)
chain: MSEEEQGSGTTTGCGLPSIEQMLAANPGKTPISLLQEYGTRIGKTPVYDLLKAEGQAHQPNFTFRVTVGDTSCTGQGPSAAAAKHKAAEVALKHLKGGSMLEPALEDSSSFSPLDSSLPEDIPVFTAAAAATPVPSVVLTRSPPMELQPPVSPQQSECNPVGALQELVVQKGWRLPEYTVTQESGPAHRKEFTMTCRVERFIEIGSGTSKKLAKRNAAAKMLLRVHTVPLDARDGNEVEPDDDHFSIGVGSRLDGLRNRGPGCTWDSLRNSVGEKILSLRSCSLGSLGALGPACCRVLSELSEEQAFHVSYLDIEELSLSGLCQCLVELSTQPATVCHGSATTREAARGEAARRALQYLKIMAGSK
notes: full length human TRBP with lysines 80 and 81 in dsRBD1 replaced with alanines; source: E. coli Rosetta (DE3) pLysS, purified (Ni-NTA agarose); not shown: His6, N-terminal, kept; myc, C-terminal, kept
- binding result [5]: binds

B13: TRBP-dsRBDmt2 (natural protein, human, UniProt Q15633 1-366, looked up)
chain: MSEEEQGSGTTTGCGLPSIEQMLAANPGKTPISLLQEYGTRIGKTPVYDLLKAEGQAHQPNFTFRVTVGDTSCTGQGPSKKAAKHKAAEVALKHLKGGSMLEPALEDSSSFSPLDSSLPEDIPVFTAAAAATPVPSVVLTRSPPMELQPPVSPQQSECNPVGALQELVVQKGWRLPEYTVTQESGPAHRKEFTMTCRVERFIEIGSGTSAALAKRNAAAKMLLRVHTVPLDARDGNEVEPDDDHFSIGVGSRLDGLRNRGPGCTWDSLRNSVGEKILSLRSCSLGSLGALGPACCRVLSELSEEQAFHVSYLDIEELSLSGLCQCLVELSTQPATVCHGSATTREAARGEAARRALQYLKIMAGSK
notes: full length human TRBP with lysines 210 and 211 in dsRBD2 replaced with alanines; source: E. coli Rosetta (DE3) pLysS, purified (Ni-NTA agarose); not shown: His6, N-terminal, kept; myc, C-terminal, kept
- binding result [5]: binds

B14: ssRNA_Luc-36 (ssRNA)
RNA: UCUUCCAGCGGAUAGAAUGGC
- binding result (TRBP-WT [4]; single strand): no binding

B15: siLuc-36 (dsRNA)
RNA 1: UCUUCCAGCGGAUAGAAUGGC
RNA 2: CAUUCUAUCCGCUGGAAGAUG
- Kd (TRBP-ΔdsRBD3): 5 nM
- Kd (TRBP-WT [3]; 2 nt 3' overhangs): 5.3 nM

B16: siLuc-48 (dsRNA)
RNA 1: CCAGCGGUUCCAUCUUCCAGC
RNA 2: UGGAAGAUGGAACCGCUGGAG
- Kd (TRBP-WT [3]; 2 nt 3' overhangs): 33 nM
